# Results taken from the nanobody polyreactivity screen of Harvey et al. (2022).
# Assay: yeast display, Sf9 membrane polyspecificity reagent, FACS + sequencing; frameworks hold sequencing errors
# Procedure, shortened: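 Nanobodies came from a synthetic yeast display library in Saccharomyces cerevisiae BJ5465, induced with galactose for 36–48 hours and stained for 1 hour at 4 °C with 10% biotinylated, detergent-solubilized Sf9 membrane reagent. Cells were enriched on streptavidin microbeads and then FACS-sorted, with low and high (top ~1%) gates set on anti-HA fluorescence for expression and streptavidin fluorescence for reagent binding. Each polyreactivity label reflects the gate a clone came from. Genes were amplified by colony PCR, sequenced by MiSeq 2 × 250 and filtered by CDR length.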
sequence,measurement,value
QVQLVESGGGLVQAGGSLRLSSAASGSLFDGNAMGWYRQAPGKEREFVAAITSSDGSTSYADSVKGRFTISRDNAKNTVYLQMNSLKPEDTAVYYCNVDDYFWPGAKFDYWGQGSQVTVSS,polyreactivity (PSR sort gate),low polyreactivity
QVQLVESGGGLVQAGGSLRLSSAASGSTFFTNALGWYRPAPGKERELGAVITKRGGSTYYADSVKGRFTISRDNAKNPVYLQMNSLKPEDTAVYYCAARIPKQQGYGYWGQGTQVTVSS,polyreactivity (PSR sort gate),high polyreactivity
QVQLVESGGGLVQAGGSLRLSSAASGSTFGPYAMGWYRQAPGKERELVATITRNGGSTYYADSVKGRFTISRDYAKNTVYLQMNSLKPEETAFYSCNAEGRWSSFTQRMDYWGQGTQVNVSS,polyreactivity (PSR sort gate),low polyreactivity
QVQLVESGGGLVQAGGSLRLSSAASGSTFLRYAMGWYRQAPGKERELVAAISYSGGSTYYADSVKGRFTISRDNAKNTVYLQMNSLIPQDTAVNYCNAGVFANDNGGRRDHFTWEYEYWGQGTQVTVSS,polyreactivity (PSR sort gate),low polyreactivity
QVQLVESGGGLVQAGGSLRLSSAASGSTFRYNTMGWYRQAPGKERELVAAINISSSSTYYADSVKGRFTISRDNAKNTVYFQINSLKPEDTAVYYCAKRDYVPIATDENDDYWGQGTQVTVSS,polyreactivity (PSR sort gate),low polyreactivity
QVQLVESGGGLVQAGGSLRLSSAASGSTFSDYAMGWYRQAPGKERELVAAISVSDGSTYYADSVKGRFTISRDNAKNTVYLQMNSLKPEDTAVYYCAAEYPYFVYSYFRFDYWGQGTQVTVSS,polyreactivity (PSR sort gate),low polyreactivity
QVQLVESGGGLVQAGGSLRLSSAASGSTFTRNGMGWYRQAPGKERELVAVISGSSSSTYYADSVKGRFTISRDNAKNTVYLQMNSLKPEDTAVYYCAARRYYGYAQYYYWGQGTQVTVSS,polyreactivity (PSR sort gate),high polyreactivity
QVQLVESGGGLVQAGGSLRLSSAASGSTFVVNAMGWYRQAPGKERELVAAITQSGGSTFYADSVKGRFTISRDNAKNTVYLQMNSLKPEDTAVYYWGQGTQLTVSS,polyreactivity (PSR sort gate),low polyreactivity
QVQLVESGGGLVQAGGSLRLSSAASGSTFWNNVMGSYRQATGKERELVAAITYSGGITYADSVKGRFTISRDNAKNTVYLEMNSLKPEDTAVYYCAADSKYKYDSWGQGTQVTVSS,polyreactivity (PSR sort gate),low polyreactivity
QVQLVESGGGLVQAGGSLRLSSAASGSTFYYNSMGWYRQAPGKETELVAGITRGGSTNYADSVKGRFTISRDNAKNTVYLQMNSLKPEDSAVYYCAKRTYFRGSSGYYYWGQGTQVTVSS,polyreactivity (PSR sort gate),high polyreactivity
QVQLVESGGGLVQAGGSLRLSSAASGSTSDNAMGWYRQAPGKEMEFVAAITSSGGSTTYADSVKGRFTISRDNAKNTVYLQMNSLKPEDTAVYYCNAGRVYYSNGYDYWGQGTQVTVSS,polyreactivity (PSR sort gate),low polyreactivity
QVQLVESGGGLVQAGGSLRLSSAASGSTYVGYTMGWYRQAPGKERELVAAITRRSGSTYYAVSVKGRFTISRDNAKNTVYLQLNSLKPEDTAVYYCAKDFSRYSRVAHTEHDYWGQGTQVTVSS,polyreactivity (PSR sort gate),high polyreactivity
QVQLVESGGGLVQAGGSLRLSSAASGYFNFFYAMGRYRQAPGKERELVASITYRGGSTYYADSVKGRFTLSRDNSKNTVYLQMNRLKPEDTAVYYCNVDGGGPLGPQGFPFDYWGQGTQVTVSS,polyreactivity (PSR sort gate),low polyreactivity
QVQLVESGGGLVQAGGSLRLSSAASGYIFQYTAMGCYRQAPGKVRELVAAIRYRGTSTYYADSVKGRFTISRDNAKNTVYLQRNSLKPEDTAVYYCAADRVPGRGFFRYGYWGQGTQVTVSS,polyreactivity (PSR sort gate),high polyreactivity
QVQLVESGGGLVQAGGSLRLSSAASGYTFGFYGLGWYRQAPGKERELVAAISRSGGGSTYYADSVKGRFTISRDNAKNSVYLQMNSLKPEDSAVYYCNRDFDDEMWGQGTQVTVSS,polyreactivity (PSR sort gate),low polyreactivity
QVQLVESGGGLVQAGGSLRLSSAASVIIFSNNAMGWSRQAPGKERELVAAISRSGGSTYYADSLKGRFTISRDNAKNTVYLQMNSLKPEETAVYYCAARARSRYDSWGQGTQVTVSS,polyreactivity (PSR sort gate),low polyreactivity
QVQLVESGGGLVQAGGSLRLSSADSGLTIKYYAMGWYRQAPGKERELVASILQSGSSTYYADSVKGRFTISRDYAKNTFYLQMNSMKPEDTAVYYCSAPRYCRSYGYDYWGQGTQVTVSS,polyreactivity (PSR sort gate),high polyreactivity
QVQLVESGGGLVQAGGSLRLSSAGSGRTFLANAMGWYRQAPGKEREFVAAIDWRTGSTYYADSVKGRFTISRDNAKNTVYLLMNSLKPEDTAVYYCAKDSSSYYYAHFYDWGQGTQVTVSS,polyreactivity (PSR sort gate),high polyreactivity
QVQLVESGGGLVQAGGSLRLSSAHSAIIFCLNSMGWYRQEPGKERELVAAITITDGSTYYADSVKGRFTISRDNAKNTVYLQMNSLKPEDTAVYYCNADAIVSPYRLWTVTFYYWGQGTQVTVSS,polyreactivity (PSR sort gate),low polyreactivity
QVQLVESGGGLVQAGGSLRLSSASSGRIFAIYVMGWYRQAHGKERELVAAITSGGNTNYADSVKGRFTISRDNAKNTVYLQINSLKPEDSAVYYCAAFYYRRSFTLSYSSFDYWGQGTQVTVSS,polyreactivity (PSR sort gate),low polyreactivity
QVQLVESGGGLVQAGGSLRLSSAVSGNTFGPYDMGWYRQAPGKERELVAGNTSGGSTYYADSVKGRFTISLDNAMNTVYLQMNSLKPEDTAVYYCAADYFLWVYWYDYWGQGTQVTVSS,polyreactivity (PSR sort gate),high polyreactivity
QVQLVESGGGLVQAGGSLRLSSGASGSTFVTYAMGWYRQAPGKEREFVAAISSTGTGRTYYADSVKGRFTISRDNAKNPVYLQMNSLKPEDTAVYYCAADLYGTYDYWGQGTQVTVSS,polyreactivity (PSR sort gate),low polyreactivity
QVQLVESGGGLVQAGGSLRLSSPASGFTFYYKGMGWYRQAPGKERELVATITSGGSTYYADSVKGRFTISSDNAKNTVYLQMNSLKPEDTAVYYCNRRISWRYVPTYDYWGQGTQVTVSS,polyreactivity (PSR sort gate),high polyreactivity
QVQLVESGGGLVQAGGSLRLSSPASGRIFITNAMGWYRQAPGKERELVASITVSGDSTYYADSVKGRFTISRDNAKNPVYLQMNSLKPEDTAVYYCAADYYALDKVLGNNYWGQGTQVTVSS,polyreactivity (PSR sort gate),low polyreactivity
QVQLVESGGGLVQAGGSLRLSSTASGFTFKLYAMGWERHATGKERELVAAISSYGGRTYYADSVKGRFTISRDNAKNTVYLQMKSLKPEDTAVYYCKAVRTVNDYHYDYWGQGTQVTVSS,polyreactivity (PSR sort gate),high polyreactivity
QVQLVESGGGLVQAGGSLRLSWAASGFTFDSNAMGWSRPAPGKEREVVAAISWSGASTYADSVKGRFTISRDNAKNTVYLQMNSLKPEDTAVYYCAADDEDVLFDYWGQGTQVTVSS,polyreactivity (PSR sort gate),low polyreactivity
QVQLVESGGGLVQAGGSLRLSWAASGFTFGVNTMGWYRQAPGKERELVADISSGGRTNYADSVKGRFTISRDNAKNTVYLQMNRLKPEDTAVYYCAADNYSGTETDLTTLLDYWGQGTQVSVSS,polyreactivity (PSR sort gate),low polyreactivity
QVQLVESGGGLVQAGGSLRLSWAASGFTLTRNAMGWYTQAPGKERELVAAISWSGGTTYYADSVKGRFTISRDNAKNPVYLQMNSLKRDDTAVYYCNTASWRAQYYYWGQGTRVTVSS,polyreactivity (PSR sort gate),high polyreactivity
QVQLVESGGGLVQAGGSLRLSWAASGRIFGRYAMGWYRQAPGKERELVAAISYSGGSTYYADSVKGRFTISRDNAKNTVYLQMNSLKPEDTAVFYCNRYPTYGRTSYVTYYYWGQGTQVTVSS,polyreactivity (PSR sort gate),high polyreactivity
QVQLVESGGGLVQAGGSLRLSWAASGRIIHYNVMGWYRQPPGKERDLVAAIRGGGRSTYYADSVKGRFTISRDNAKNTVYLQMNSLKPEDTAVYYCAKSLSQNTYYHQGYYDDNYWGQGTQVTVSS,polyreactivity (PSR sort gate),low polyreactivity
QVQLVESGGGLVQAGGSLRLSWAASGSIFQYVYAMGWYRQAPGKERELVATITWSGGSTYYSDSVKGRFTISRDNAKNTVYLQMNSLKPEDTAVYYCAAESIYYPVAQYYYSFEYWGQGTQVTVSS,polyreactivity (PSR sort gate),low polyreactivity
QVQLVESGGGLVQAGGSLRLSWAASGSTFDGYAMGWYRQAPGKERELVAAITRSGGSTYYADSVKGRFTISRDNAKITVYRQINSLKPEDTEVYYSNKYGYKGCVGYDYWGKGTQVTVSS,polyreactivity (PSR sort gate),high polyreactivity
